For 1 molecule, EC50 results are on record in patent US20180118814A1.

Experiment [1] deals with HBsAg-L antigen (Beacle, BCL-AG-001) (hepatitis B virus). Kind of experiment: ELISA, plate coated with 1 µg/mL HBsAg-L, anti-human kappa-HRP detection, purified protein.
The target is the same in experiment [2]. Kind of experiment: ELISA, plate coated with 1 µg/mL HBsAg-L, anti-human kappa-HRP detection, cell culture supernatant. Background: In an ELISA, binding on a coated surface is turned into a signal by an enzyme label.

B1: HBV24G (antibody, human IgG1, kappa, V domains shown)
VH: QVQLVQSGAEVKAPGASVKVSCKASGYTFTSAWMNWVRQAPGQGLEWMGRIYPSGGSTSYAQKFQGRVTMTADKSTSTVYMELSSLRSEDTAVYYCAREYRVARWGQGTLVTVSS
VL: DIVMTQTPLSLSVTPGQPASISCKSSQSLLYSNGKTYLNWLLQKPGQPPQRLIYLVSNRDSGVPDRFSGSGSGTDFTLKISRVEAEDVGVYYCVQGTHFPQTFGGGTKVEIKR
As to B1, the figures for the EC50 in experiment [1] and in experiment [2] were 0.061 nM and 0.057 nM, respectively.

The EC50 is the concentration that produces a half-maximal response. A low value points to a more potent agent.
